Test results published in the supplement of paper PMC5998384.

Columns and labels:
HeLa Kyoto [1] = test: solubility in G1/S (NP-40 vs SDS abundance) (log2 ratio); higher = more soluble; settings: cell cycle stage: G1/S
HeLa Kyoto [2] = test: melting temperature (median over replicates), in situ; higher = more thermally stable
HeLa Kyoto [3] = test: solubility change mitosis vs G1/S (difference of NP-40 vs SDS log2 ratios) (log2 ratio difference); higher = more soluble in mitosis
HeLa Kyoto [4] = test: thermal stability score vs G1/S (z-score of summed log2 fold changes over temperatures); higher = more thermally stable than in G1/S
[5] = cell cycle stage: early G1 (4.5 h after nocodazole release)
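For melting temperature (median over replicates), in situ in this document: HeLa Kyoto cells synchronized by double thymidine or nocodazole block, proteins quantified by TMT10plex mass spectrometry, three independent biological replicates.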
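For solubility change mitosis vs G1/S (difference of NP-40 vs SDS log2 ratios) in this document: synchronized HeLa Kyoto cells (double thymidine block for G1/S, nocodazole release for mitosis), protein amounts in NP-40 versus SDS lysates quantified by mass spectrometry, three biological replicates.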
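For solubility in G1/S (NP-40 vs SDS abundance) in this document: HeLa Kyoto cells arrested at G1/S by double thymidine block, proteins quantified by TMT10plex mass spectrometry in mild NP-40 versus SDS extracts, three biological replicates.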
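For thermal stability score vs G1/S (z-score of summed log2 fold changes over temperatures) in this document: synchronized HeLa Kyoto cells, proteins quantified by TMT10plex mass spectrometry, three biological replicates, mitosis taken 0.5 h after nocodazole release, G1/S directly after double thymidine block.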

UBE2Q1, sequence (chain, as listed by the source): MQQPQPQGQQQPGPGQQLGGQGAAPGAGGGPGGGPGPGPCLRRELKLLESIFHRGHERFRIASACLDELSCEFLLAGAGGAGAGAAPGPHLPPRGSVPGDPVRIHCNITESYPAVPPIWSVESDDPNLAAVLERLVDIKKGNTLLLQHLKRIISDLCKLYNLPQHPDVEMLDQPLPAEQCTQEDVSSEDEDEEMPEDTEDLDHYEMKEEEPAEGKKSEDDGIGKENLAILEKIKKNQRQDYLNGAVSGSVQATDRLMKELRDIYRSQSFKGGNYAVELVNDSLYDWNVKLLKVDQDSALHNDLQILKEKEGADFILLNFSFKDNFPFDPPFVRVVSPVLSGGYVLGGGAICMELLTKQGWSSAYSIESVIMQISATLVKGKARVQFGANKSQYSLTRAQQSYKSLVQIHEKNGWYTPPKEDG
ZMAT2, sequence (chain, as listed by the source): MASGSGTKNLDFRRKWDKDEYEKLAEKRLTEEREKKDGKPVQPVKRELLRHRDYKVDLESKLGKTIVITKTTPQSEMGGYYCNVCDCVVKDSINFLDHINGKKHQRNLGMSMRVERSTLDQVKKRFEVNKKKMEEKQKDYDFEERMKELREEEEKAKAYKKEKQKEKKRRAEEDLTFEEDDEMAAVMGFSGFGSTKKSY
ZFR, sequence (chain, as listed by the source): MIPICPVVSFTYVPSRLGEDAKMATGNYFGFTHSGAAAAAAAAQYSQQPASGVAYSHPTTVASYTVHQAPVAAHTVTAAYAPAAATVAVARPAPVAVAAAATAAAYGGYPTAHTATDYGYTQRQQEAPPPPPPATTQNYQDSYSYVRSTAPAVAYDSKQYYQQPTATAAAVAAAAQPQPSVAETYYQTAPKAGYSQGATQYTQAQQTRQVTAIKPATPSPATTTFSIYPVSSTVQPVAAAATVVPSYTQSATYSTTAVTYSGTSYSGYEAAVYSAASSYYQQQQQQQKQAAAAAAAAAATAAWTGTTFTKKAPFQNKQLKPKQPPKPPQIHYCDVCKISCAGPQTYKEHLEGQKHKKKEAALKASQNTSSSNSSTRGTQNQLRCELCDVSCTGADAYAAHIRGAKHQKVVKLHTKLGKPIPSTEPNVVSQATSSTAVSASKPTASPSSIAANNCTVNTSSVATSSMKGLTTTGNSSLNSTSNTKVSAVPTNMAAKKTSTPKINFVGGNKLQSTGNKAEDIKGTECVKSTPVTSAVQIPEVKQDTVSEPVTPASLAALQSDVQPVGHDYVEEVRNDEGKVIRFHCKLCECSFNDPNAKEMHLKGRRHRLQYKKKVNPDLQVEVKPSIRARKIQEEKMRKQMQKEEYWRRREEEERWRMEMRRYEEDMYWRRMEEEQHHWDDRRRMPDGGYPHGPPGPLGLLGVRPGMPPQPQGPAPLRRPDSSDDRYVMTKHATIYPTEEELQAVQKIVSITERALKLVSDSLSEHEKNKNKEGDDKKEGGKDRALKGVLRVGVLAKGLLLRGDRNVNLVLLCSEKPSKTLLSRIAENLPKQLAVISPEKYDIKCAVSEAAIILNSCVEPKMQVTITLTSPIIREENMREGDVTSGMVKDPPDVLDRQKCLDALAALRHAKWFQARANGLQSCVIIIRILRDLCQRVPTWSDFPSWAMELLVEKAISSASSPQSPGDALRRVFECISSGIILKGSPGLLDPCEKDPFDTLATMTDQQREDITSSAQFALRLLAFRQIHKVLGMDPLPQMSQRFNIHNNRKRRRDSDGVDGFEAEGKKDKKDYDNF
WRAP53, sequence (chain, as listed by the source): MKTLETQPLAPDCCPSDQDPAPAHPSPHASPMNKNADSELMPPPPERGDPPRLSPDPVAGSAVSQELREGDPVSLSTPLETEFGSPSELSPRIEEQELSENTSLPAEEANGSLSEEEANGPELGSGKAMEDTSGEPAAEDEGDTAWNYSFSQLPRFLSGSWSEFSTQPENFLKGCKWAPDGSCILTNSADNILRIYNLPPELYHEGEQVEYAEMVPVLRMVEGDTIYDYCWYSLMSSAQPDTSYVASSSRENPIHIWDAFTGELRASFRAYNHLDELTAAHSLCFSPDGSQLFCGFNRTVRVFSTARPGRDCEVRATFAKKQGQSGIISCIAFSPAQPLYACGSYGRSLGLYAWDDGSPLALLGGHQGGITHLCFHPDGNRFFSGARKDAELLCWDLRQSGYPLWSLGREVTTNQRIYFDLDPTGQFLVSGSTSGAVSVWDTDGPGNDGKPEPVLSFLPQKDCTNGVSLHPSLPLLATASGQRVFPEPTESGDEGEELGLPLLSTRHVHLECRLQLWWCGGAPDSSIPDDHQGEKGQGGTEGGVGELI
TIMM17A, sequence (chain, as listed by the source): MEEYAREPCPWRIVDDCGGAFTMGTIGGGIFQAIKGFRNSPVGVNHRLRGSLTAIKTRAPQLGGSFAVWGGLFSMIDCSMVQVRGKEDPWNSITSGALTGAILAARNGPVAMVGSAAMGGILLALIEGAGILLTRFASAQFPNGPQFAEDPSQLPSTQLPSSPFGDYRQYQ
VPRBP, sequence (chain, as listed by the source): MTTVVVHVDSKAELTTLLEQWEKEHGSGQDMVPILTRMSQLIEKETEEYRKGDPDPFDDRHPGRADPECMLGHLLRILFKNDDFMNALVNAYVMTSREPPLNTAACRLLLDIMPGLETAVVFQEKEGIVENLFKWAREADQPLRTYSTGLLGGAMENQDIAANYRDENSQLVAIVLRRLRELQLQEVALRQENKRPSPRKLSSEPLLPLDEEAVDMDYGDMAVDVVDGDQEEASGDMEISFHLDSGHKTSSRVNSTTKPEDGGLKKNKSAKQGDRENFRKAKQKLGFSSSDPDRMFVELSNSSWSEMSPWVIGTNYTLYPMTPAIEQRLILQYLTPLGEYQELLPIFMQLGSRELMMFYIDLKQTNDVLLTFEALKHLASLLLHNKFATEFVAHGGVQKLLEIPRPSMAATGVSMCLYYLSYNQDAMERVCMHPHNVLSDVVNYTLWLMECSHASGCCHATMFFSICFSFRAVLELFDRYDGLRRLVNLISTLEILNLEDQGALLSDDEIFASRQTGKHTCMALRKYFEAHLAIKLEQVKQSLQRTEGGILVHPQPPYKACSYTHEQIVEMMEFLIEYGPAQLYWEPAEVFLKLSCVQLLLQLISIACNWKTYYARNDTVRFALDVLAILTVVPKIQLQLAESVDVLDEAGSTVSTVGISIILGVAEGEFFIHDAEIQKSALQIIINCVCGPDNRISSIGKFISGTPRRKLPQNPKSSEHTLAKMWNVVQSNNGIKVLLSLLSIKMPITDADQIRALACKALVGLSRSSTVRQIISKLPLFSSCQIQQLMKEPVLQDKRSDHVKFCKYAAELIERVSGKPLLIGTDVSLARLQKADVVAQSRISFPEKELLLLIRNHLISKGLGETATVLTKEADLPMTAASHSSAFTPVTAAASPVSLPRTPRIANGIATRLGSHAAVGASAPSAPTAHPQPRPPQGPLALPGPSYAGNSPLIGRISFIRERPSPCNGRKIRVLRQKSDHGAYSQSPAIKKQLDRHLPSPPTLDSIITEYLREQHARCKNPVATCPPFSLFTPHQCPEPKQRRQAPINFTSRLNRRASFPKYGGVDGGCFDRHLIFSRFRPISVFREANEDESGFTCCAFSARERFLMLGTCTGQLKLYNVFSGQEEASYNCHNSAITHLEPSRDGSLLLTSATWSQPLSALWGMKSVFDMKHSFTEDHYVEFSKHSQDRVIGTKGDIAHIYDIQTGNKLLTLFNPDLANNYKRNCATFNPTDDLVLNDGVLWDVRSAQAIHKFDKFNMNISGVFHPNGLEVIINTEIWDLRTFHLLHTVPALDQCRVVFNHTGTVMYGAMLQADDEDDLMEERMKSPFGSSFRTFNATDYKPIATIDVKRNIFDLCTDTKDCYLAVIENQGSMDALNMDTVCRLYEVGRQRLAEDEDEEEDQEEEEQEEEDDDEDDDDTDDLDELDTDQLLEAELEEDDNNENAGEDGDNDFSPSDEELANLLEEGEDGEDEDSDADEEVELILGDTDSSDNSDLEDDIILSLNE
YES1, sequence (chain, as listed by the source): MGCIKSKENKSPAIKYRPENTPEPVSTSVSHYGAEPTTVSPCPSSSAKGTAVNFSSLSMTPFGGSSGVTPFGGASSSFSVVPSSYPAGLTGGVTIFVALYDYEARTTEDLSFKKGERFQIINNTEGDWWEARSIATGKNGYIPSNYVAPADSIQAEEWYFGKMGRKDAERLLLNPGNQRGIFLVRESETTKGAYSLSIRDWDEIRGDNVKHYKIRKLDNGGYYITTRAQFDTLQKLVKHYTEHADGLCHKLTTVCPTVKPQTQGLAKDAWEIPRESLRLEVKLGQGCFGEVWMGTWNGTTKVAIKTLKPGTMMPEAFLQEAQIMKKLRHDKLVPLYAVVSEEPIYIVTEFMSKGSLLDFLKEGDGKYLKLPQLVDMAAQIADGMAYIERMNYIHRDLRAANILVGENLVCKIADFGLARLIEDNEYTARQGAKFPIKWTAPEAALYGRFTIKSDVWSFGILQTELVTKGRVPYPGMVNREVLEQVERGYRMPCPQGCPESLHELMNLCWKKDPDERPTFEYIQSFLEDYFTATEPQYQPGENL

Substance	solubility in G1/S (log2) (HeLa Kyoto [1])	melting temperature (HeLa Kyoto [2]; cell cycle stage: G1/S) [°C]	melting temperature (HeLa Kyoto [2]; cell cycle stage: mitosis) [°C]	solubility change mitosis (log2) (HeLa Kyoto [3])	thermal stability score (HeLa Kyoto [4]; [5])	thermal stability score (HeLa Kyoto [4]; cell cycle stage: mitosis)
TACC3	0.351	53.3	53.1	0.304	-0.722	1.13
TAF15	-0.786	51.1	53.1	0.12	-0.357	-4.49
THOP1	0.0611	56.3	56.1	-0.109	-1.55	-2.28
TIMM17A	0.157	58.5	58.7	-0.00894	-1.93	-3.23
TNKS1BP1	-0.0801	57.1	59.8	0.0438	-3.49	-3.6
TP53BP1	-0.0663	49.9	50.8	-0.107	-3.39	-2.67
TPP2	-0.0302	54.6	54.2	-0.106	-1.14	-1.13
TTN	-0.476	50.4	51.5	0.167	2.14	1.45
UBE2Q1	0.255	50	50.3	-0.042	0.426	0.875
UBR1	-0.252	48.6	50.3	-0.26	0.878	1.16
UBR4	-0.243	51.3	50.4	-0.163	-0.403	0.0628
UBR5	-0.142	47.5	49.8	-0.155	1.78	5.42
USP9X	-0.226	50.4	50.6	-0.134	-0.0892	0.618
VPRBP	-0.225	50.8	50.6	-0.0867	-0.576	-0.973
VPS13A	-0.236	53.6	53.7	-0.144	-1.93	-1.94
VWA8	-0.224	50.3	50.4	-0.0997	1.66	1.12
WDR62	-0.382	49	49.3	0.187	0.713	1.36
WRAP53	-0.0145	53.7	53.4	-0.144	-1.59	-0.902
YES1	-0.536	51.2	50.9	0.0165	0.418	0.409
YLPM1	-0.708	48.3	48.3	0.495	0.777	0.487
ZFC3H1	-0.247	49.3	49.9	0.0411	0.428	0.858
ZFR	-0.167	52.4	51.9	0.103	0.655	-0.928
ZMAT2	-0.324	57.8	54.3	0.427	1.39	-4.93
ZMYM4	-0.601	46	49.4	0.281	1.6	3.25
ZNF24	-0.217		52.2	0.265	1.15	1.78
